Measurements published in patent publication US20190275196A1, “Hemostatic Powders with Self-Assembling Peptide Hydrogels” (3-D Matrix, Ltd., priority 2016, published 2019).

How the values were obtained:
Assay type in all cases: physicochemical
[1] = Congo Red assay of gel formation of peptide solutions with hemostatic powders; settings: for gel formation when mixed with hemostatic powder compared with pure peptide solution: Congo Red assay, visual
Method: A Congo Red assay was performed to determine gel formation of peptide solutions in a saline buffer solution (pH 7.4) when used with hemostatic powders.
Pure self-assembling peptide solution (PuraMatrix®), and peptide solution/hemostatic powders (Surgiflo®, Ethicon) mixtures were plated on a glass slide. After 30 seconds, 1% Congo Red solution in saline buffer solution (pH 7.4) was added around and on top of the gel aliquots and then the excess Congo Red solution was wiped off prior to examination. Visualization of gel formation determined the success or failure of gelation. […] In (1) and (2), self-assembling peptide solution (PuraMatrix®) before and after Congo red assay, respectively is shown. In (3) and (4), PuraMatrix® mixed with absorbable gelatin powder (Surgiflo®, Ethicon) at a ratio of 2 to 1 (v/w) before and after Congo red assay, respectively is shown. In (5) and (6), PuraMatrix® mixed with absorbable gelatin powder (Surgiflo®, Ethicon) at a ratio of 5 to 1 (v/w) before and after Congo red assay, respectively is shown.
Pure self-assembling peptide solution (IEIK13 1.3% at pH3.0) and peptide solution/hemostatic powders (Surgiflo®, Ethicon) mixture were plated on a glass slide. After 30 seconds, 1% Congo Red solution in saline buffer solution ([…]) was added around and on top of the gel aliquots and then the excess Congo Red solution was wiped off prior to examination. Visualization of gel formation determined the success or failure of gelation. […] In (1) and (2), self-assembling peptide solution (IEIK13 1.3% at pH 3.0) before and after Congo Red assay, respectively, is shown. In (3) and (4), IEIK13 1.3% at pH 3.0 mixed with absorbable gelatin powder, (Surgiflo®, Ethicon) at a ratio of 2 to 1 (v/w) before and after Congo Red assay, respectively, is shown. The interval of grids in FIG. 8 is 1 cm.

[2] = Apparent miscibility of gelatin powder with peptide solution or saline (syringe mixing); settings: various mixing ratios, mixed between two luer-lock syringes, plated on glass slide
Method: Gelatin powder (Surgiflo®) was separately mixed with saline and RADA16 2.5% solution (PuraMatrix®) to determine their apparent miscibility. Gelatin powders were placed in a luer-lock syringe and saline or RADA16 2.5% solution (PuraMatrix®) was placed in another luer-lock syringe. The syringes were connected to mix the contents of the two syringes by moving the plungers back and forth, for example, six times until the consistency was even. The mixtures were plated on a glass slide. FIG. 3 presents images of gelatin powder (Surgiflo®) and saline mixtures (upside images) and gelatin powder and RADA16 2.5% (PuraMatrix®) mixtures at various mixing ratios.
Gelatin powder (Surgiflo®) was mixed with IEIK13 1.3% (pH 3.0) solution to determine its apparent miscibility. Gelatin powders were placed in a luer-lock syringe and IEIK13 1.3% (pH 3.0) was placed in another luor-lock syringe. The syringes were connected to mix contents of the two syringes by moving the plungers back and forth, for example, six times until the consistency was even. The mixtures were plated on a glass slide. FIG. 9 presents images of gelatin powder (Surgiflo®) and IEIK13 mixtures at various mixing ratios.

[3] = Rheology (storage/loss modulus, frequency sweep) before and after DMEM treatment; settings: DMEM for 20 min; 25° C.; 1-10 rad/sec
Method: The rheological properties of gelatin powders with saline, self-assembling peptide, and gelatin powder with self-assembling peptide were evaluated using a rheometer (DHR-1, TA Instruments) with 20 mm plates. The samples were placed on the rheometer plate and the moduli were measured at 25° C. with the plates placed at a measuring geometry gap of 1000 μm. Measurements were performed after 2 minutes of relaxation time at 25° C. Frequency sweep tests were performed at 1 rad/sec˜10 red/sec of oscillation stress with strain at 0.01.
Pure RADA16 2.5% (PuraMatrix®), gelatin powder (Surgiflo®) mixed with saline at 2:1 w/v ratio, and gelatin powder mixed with RADA16 2.5% at various mixing ratios were all tested. These samples were treated with DMEM for 20 min after their frequency tests were performed without DMEM treatment. FIG. 4 presents the rheology of gelatin powders mixed with saline at a ratio of 2:1 w/v before and after DMEM treatment. FIG. 5 presents the rheology of RADA16 2.5% solution before and after DMEM treatment. FIG. 6 presents the rheology of gelatin powders mixed with RADA16 2.5% at a ratio of 1:5 w/v before and after DMEM treatment.

[4] = peptide solution mixed with gelatin powder (Surgiflo®) at a ratio of 2 to 1 (v/w), 1% Congo Red in saline buffer solution (pH 7.4)

| Substance | gel formation when mixed with hemostatic powder compared with pure peptide solution [1] | gel formation (gelation) [1, 4] | gel formation (gelation) ([1]; peptide solution mixed with gelatin powder (Surgiflo®) at a ratio of 5 to 1 (v/w), 1% Congo Red in saline buffer solution (pH 7.4)) | apparent miscibility with gelatin powder (Surgiflo®) [2] | apparent miscibility with gelatin powder (Surgiflo®) ([2]; listed as RADA16) | change of moduli (storage/loss) after DMEM treatment [3] | gel formation (gelation) ([1]; mixed with a hemostatic powder at a ratio of 5 to 1, expected, not tested) | apparent miscibility with gelatin powder (Surgiflo®) ([2]; listed as IEIK13) |
| --- | --- | --- | --- | --- | --- | --- | --- | --- |
| RADARADARADARADA [RADA16 2.5%] | gelled even when mixed with hemostatic powder to a similar extent as observed in pure peptide solution | capable of gelation | capable of gelation | capable of homogenous mixture | homogeneously mixed across various mixing ratios | increased | – | – |
| IEIK13 1.3% (pH3.0): self-assembling peptide having the repeating sequence Ile-Glu-Ile-Lys (IEIK), 1.3% solution at pH 3.0 | gelled even when mixed with hemostatic powder to a similar extent as observed in pure peptide solution | capable of gelation | – | capable of homogenous mixture | – | – | capable of gelation | homogeneously mixed across various mixing ratios |
